Starred links: 1 amine or outer side, 2 acyl side, 3 side chain; linkers in the order of their positions; H or OH if unused. Non-standard residues stand in square brackets, D forms with d. Groups on a side chain read outwards from the residue. No end group written: not given here. *: point of attachment. Trp(5-Br) = N[C@@H](Cc1c[nH]c2ccc(Br)cc12)C(=O)O; Bip = N[C@@H](Cc1ccc(-c2ccccc2)cc1)C(=O)O; C18 diacid = O=C(O)CCCCCCCCCCCCCCCCC(=O)*; γGlu = O=C(O)[C@H](CCC(=O)[*:2])N[*:1]; αMeF = C[C@](N)(Cc1ccccc1)C(=O)O; AEEA = NCCOCCOCC(=O)O; Aib = CC(C)(N)C(=O)O
B1: Peptide 434 (peptide)
peptide: H[Aib]QGTFTSDVSK[αMeF]LDSK([AEEA-AEEA-γGlu-C18 diacid])RAQDFVR[Trp(5-Br)]LL[Aib]E-OH
modifications: N-terminus assumed
SMILES: CC(C)C[C@H](NC(=O)[C@H](Cc1c[nH]c2ccc(Br)cc12)NC(=O)[C@H](CCCNC(=N)N)NC(=O)[C@@H](NC(=O)[C@H](Cc1ccccc1)NC(=O)[C@H](CC(=O)O)NC(=O)[C@H](CCC(N)=O)NC(=O)[C@H](C)NC(=O)[C@H](CCCNC(=N)N)NC(=O)[C@H](CCCCNC(=O)COCCOCCNC(=O)COCCOCCNC(=O)CC[C@H](NC(=O)CCCCCCCCCCCCCCCCC(=O)O)C(=O)O)NC(=O)[C@H](CO)NC(=O)[C@H](CC(=O)O)NC(=O)[C@H](CC(C)C)NC(=O)[C@](C)(Cc1ccccc1)NC(=O)[C@H](CCCCN)NC(=O)[C@H](CO)NC(=O)[C@@H](NC(=O)[C@H](CC(=O)O)NC(=O)[C@H](CO)NC(=O)[C@@H](NC(=O)[C@H](Cc1ccccc1)NC(=O)[C@@H](NC(=O)CNC(=O)[C@H](CCC(N)=O)NC(=O)C(C)(C)NC(=O)[C@@H](N)Cc1c[nH]cn1)[C@@H](C)O)[C@@H](C)O)C(C)C)C(C)C)C(=O)N[C@@H](CC(C)C)C(=O)NC(C)(C)C(=O)N[C@@H](CCC(=O)O)C(=O)O
B2: Peptide 431 (peptide)
peptide: H[Aib]QGTFTSDVSK[αMeF]LDTK([AEEA-AEEA-γGlu-γGlu-C18 diacid])RAQDFVAWLEA[Aib]G-NH2
modifications: N-terminus assumed
SMILES: CC(C)C[C@H](NC(=O)[C@H](Cc1c[nH]c2ccccc12)NC(=O)[C@H](C)NC(=O)[C@@H](NC(=O)[C@H](Cc1ccccc1)NC(=O)[C@H](CC(=O)O)NC(=O)[C@H](CCC(N)=O)NC(=O)[C@H](C)NC(=O)[C@H](CCCNC(=N)N)NC(=O)[C@H](CCCCNC(=O)COCCOCCNC(=O)COCCOCCNC(=O)CC[C@H](NC(=O)CC[C@H](NC(=O)CCCCCCCCCCCCCCCCC(=O)O)C(=O)O)C(=O)O)NC(=O)[C@@H](NC(=O)[C@H](CC(=O)O)NC(=O)[C@H](CC(C)C)NC(=O)[C@](C)(Cc1ccccc1)NC(=O)[C@H](CCCCN)NC(=O)[C@H](CO)NC(=O)[C@@H](NC(=O)[C@H](CC(=O)O)NC(=O)[C@H](CO)NC(=O)[C@@H](NC(=O)[C@H](Cc1ccccc1)NC(=O)[C@@H](NC(=O)CNC(=O)[C@H](CCC(N)=O)NC(=O)C(C)(C)NC(=O)[C@@H](N)Cc1c[nH]cn1)[C@@H](C)O)[C@@H](C)O)C(C)C)[C@@H](C)O)C(C)C)C(=O)N[C@@H](CCC(=O)O)C(=O)N[C@@H](C)C(=O)NC(C)(C)C(=O)NCC(N)=O
B3: Peptide 436 (peptide)
peptide: H[Aib]QGTFTSDVSK[αMeF]LDRK([AEEA-AEEA-γGlu-C18 diacid])RAQDFVRWLV[Aib]E-NH2
modifications: N-terminus assumed
SMILES: CC(C)C[C@H](NC(=O)[C@H](Cc1c[nH]c2ccccc12)NC(=O)[C@H](CCCNC(=N)N)NC(=O)[C@@H](NC(=O)[C@H](Cc1ccccc1)NC(=O)[C@H](CC(=O)O)NC(=O)[C@H](CCC(N)=O)NC(=O)[C@H](C)NC(=O)[C@H](CCCNC(=N)N)NC(=O)[C@H](CCCCNC(=O)COCCOCCNC(=O)COCCOCCNC(=O)CC[C@H](NC(=O)CCCCCCCCCCCCCCCCC(=O)O)C(=O)O)NC(=O)[C@H](CCCNC(=N)N)NC(=O)[C@H](CC(=O)O)NC(=O)[C@H](CC(C)C)NC(=O)[C@](C)(Cc1ccccc1)NC(=O)[C@H](CCCCN)NC(=O)[C@H](CO)NC(=O)[C@@H](NC(=O)[C@H](CC(=O)O)NC(=O)[C@H](CO)NC(=O)[C@@H](NC(=O)[C@H](Cc1ccccc1)NC(=O)[C@@H](NC(=O)CNC(=O)[C@H](CCC(N)=O)NC(=O)C(C)(C)NC(=O)[C@@H](N)Cc1c[nH]cn1)[C@@H](C)O)[C@@H](C)O)C(C)C)C(C)C)C(=O)N[C@H](C(=O)NC(C)(C)C(=O)N[C@@H](CCC(=O)O)C(N)=O)C(C)C
B4: Peptide 435 (peptide)
peptide: H[Aib]QGTFTSDVSK[αMeF]LDTK([AEEA-AEEA-γGlu-C18 diacid])RARDFVQ[Aib]LLE[Aib]G-OH
modifications: N-terminus assumed
SMILES: CC(C)C[C@H](NC(=O)[C@H](CC(C)C)NC(=O)C(C)(C)NC(=O)[C@H](CCC(N)=O)NC(=O)[C@@H](NC(=O)[C@H](Cc1ccccc1)NC(=O)[C@H](CC(=O)O)NC(=O)[C@H](CCCNC(=N)N)NC(=O)[C@H](C)NC(=O)[C@H](CCCNC(=N)N)NC(=O)[C@H](CCCCNC(=O)COCCOCCNC(=O)COCCOCCNC(=O)CC[C@H](NC(=O)CCCCCCCCCCCCCCCCC(=O)O)C(=O)O)NC(=O)[C@@H](NC(=O)[C@H](CC(=O)O)NC(=O)[C@H](CC(C)C)NC(=O)[C@](C)(Cc1ccccc1)NC(=O)[C@H](CCCCN)NC(=O)[C@H](CO)NC(=O)[C@@H](NC(=O)[C@H](CC(=O)O)NC(=O)[C@H](CO)NC(=O)[C@@H](NC(=O)[C@H](Cc1ccccc1)NC(=O)[C@@H](NC(=O)CNC(=O)[C@H](CCC(N)=O)NC(=O)C(C)(C)NC(=O)[C@@H](N)Cc1c[nH]cn1)[C@@H](C)O)[C@@H](C)O)C(C)C)[C@@H](C)O)C(C)C)C(=O)N[C@@H](CCC(=O)O)C(=O)NC(C)(C)C(=O)NCC(=O)O
B5: Peptide 429 (peptide)
peptide: H[Aib]QGTFTSDVSK[αMeF]LDSK([AEEA-AEEA-γGlu-C18 diacid])RAQDFVRWLEA[Aib]G-NH2
modifications: N-terminus assumed
SMILES: CC(C)C[C@H](NC(=O)[C@H](Cc1c[nH]c2ccccc12)NC(=O)[C@H](CCCNC(=N)N)NC(=O)[C@@H](NC(=O)[C@H](Cc1ccccc1)NC(=O)[C@H](CC(=O)O)NC(=O)[C@H](CCC(N)=O)NC(=O)[C@H](C)NC(=O)[C@H](CCCNC(=N)N)NC(=O)[C@H](CCCCNC(=O)COCCOCCNC(=O)COCCOCCNC(=O)CC[C@H](NC(=O)CCCCCCCCCCCCCCCCC(=O)O)C(=O)O)NC(=O)[C@H](CO)NC(=O)[C@H](CC(=O)O)NC(=O)[C@H](CC(C)C)NC(=O)[C@](C)(Cc1ccccc1)NC(=O)[C@H](CCCCN)NC(=O)[C@H](CO)NC(=O)[C@@H](NC(=O)[C@H](CC(=O)O)NC(=O)[C@H](CO)NC(=O)[C@@H](NC(=O)[C@H](Cc1ccccc1)NC(=O)[C@@H](NC(=O)CNC(=O)[C@H](CCC(N)=O)NC(=O)C(C)(C)NC(=O)[C@@H](N)Cc1c[nH]cn1)[C@@H](C)O)[C@@H](C)O)C(C)C)C(C)C)C(=O)N[C@@H](CCC(=O)O)C(=O)N[C@@H](C)C(=O)NC(C)(C)C(=O)NCC(N)=O
B6: Peptide 432 (peptide)
peptide: H[Aib]QGTFTSDVSK[αMeF]LDSK([AEEA-AEEA-γGlu-C18 diacid])RAQDFVR[Bip]LL[Aib]E-OH
modifications: N-terminus assumed
SMILES: CC(C)C[C@H](NC(=O)[C@H](Cc1ccc(-c2ccccc2)cc1)NC(=O)[C@H](CCCNC(=N)N)NC(=O)[C@@H](NC(=O)[C@H](Cc1ccccc1)NC(=O)[C@H](CC(=O)O)NC(=O)[C@H](CCC(N)=O)NC(=O)[C@H](C)NC(=O)[C@H](CCCNC(=N)N)NC(=O)[C@H](CCCCNC(=O)COCCOCCNC(=O)COCCOCCNC(=O)CC[C@H](NC(=O)CCCCCCCCCCCCCCCCC(=O)O)C(=O)O)NC(=O)[C@H](CO)NC(=O)[C@H](CC(=O)O)NC(=O)[C@H](CC(C)C)NC(=O)[C@](C)(Cc1ccccc1)NC(=O)[C@H](CCCCN)NC(=O)[C@H](CO)NC(=O)[C@@H](NC(=O)[C@H](CC(=O)O)NC(=O)[C@H](CO)NC(=O)[C@@H](NC(=O)[C@H](Cc1ccccc1)NC(=O)[C@@H](NC(=O)CNC(=O)[C@H](CCC(N)=O)NC(=O)C(C)(C)NC(=O)[C@@H](N)Cc1c[nH]cn1)[C@@H](C)O)[C@@H](C)O)C(C)C)C(C)C)C(=O)N[C@@H](CC(C)C)C(=O)NC(C)(C)C(=O)N[C@@H](CCC(=O)O)C(=O)O
B7: Peptide 430 (peptide)
peptide: H[Aib]QGTFTSDVSK[αMeF]LDSK([AEEA-AEEA-γGlu-γGlu-C18 diacid])RAQDFVRWLEA[Aib]G-NH2
modifications: N-terminus assumed
SMILES: CC(C)C[C@H](NC(=O)[C@H](Cc1c[nH]c2ccccc12)NC(=O)[C@H](CCCNC(=N)N)NC(=O)[C@@H](NC(=O)[C@H](Cc1ccccc1)NC(=O)[C@H](CC(=O)O)NC(=O)[C@H](CCC(N)=O)NC(=O)[C@H](C)NC(=O)[C@H](CCCNC(=N)N)NC(=O)[C@H](CCCCNC(=O)COCCOCCNC(=O)COCCOCCNC(=O)CC[C@H](NC(=O)CC[C@H](NC(=O)CCCCCCCCCCCCCCCCC(=O)O)C(=O)O)C(=O)O)NC(=O)[C@H](CO)NC(=O)[C@H](CC(=O)O)NC(=O)[C@H](CC(C)C)NC(=O)[C@](C)(Cc1ccccc1)NC(=O)[C@H](CCCCN)NC(=O)[C@H](CO)NC(=O)[C@@H](NC(=O)[C@H](CC(=O)O)NC(=O)[C@H](CO)NC(=O)[C@@H](NC(=O)[C@H](Cc1ccccc1)NC(=O)[C@@H](NC(=O)CNC(=O)[C@H](CCC(N)=O)NC(=O)C(C)(C)NC(=O)[C@@H](N)Cc1c[nH]cn1)[C@@H](C)O)[C@@H](C)O)C(C)C)C(C)C)C(=O)N[C@@H](CCC(=O)O)C(=O)N[C@@H](C)C(=O)NC(C)(C)C(=O)NCC(N)=O

What follows are binders tested against human GLP-1 receptor (human, UniProt P43220) (assay: cell-based or functional assay).

cAMP production EC50 [nM]	Binder
0.153	B1
0.0446	B2
0.00743	B3
0.0227	B4
0.015	B5
1.38	B6
0.0244	B7

These binders were tested against human glucagon receptor (human, UniProt P47871) (assay: cell-based or functional assay).

cAMP production EC50 [nM]	Binder
0.294	B1
0.194	B2
0.0688	B3
0.24	B4
0.144	B5
1.16	B6
0.16	B7
